According to publication PMC9482650, “Quantitative fragmentomics allow affinity mapping of interactomes” (Nature Communications, 2022):

Tests used:
Assay in all cases: holdup assay
Set-up in all cases: key: below the threshold = too weak to quantify, mostly under pKd 3.1 to 4
[1] = biological target: T1, LIN7C, Q9NUP9
T1 sequence (Q9NUP9 88-185, limits assumed, looked up): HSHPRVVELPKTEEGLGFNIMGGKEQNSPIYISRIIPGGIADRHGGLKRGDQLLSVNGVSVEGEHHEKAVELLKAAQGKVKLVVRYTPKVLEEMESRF

[2] = biological target: T2, LNX2_2, Q8N448
T2 sequence (Q8N448 334-432, limits assumed, looked up): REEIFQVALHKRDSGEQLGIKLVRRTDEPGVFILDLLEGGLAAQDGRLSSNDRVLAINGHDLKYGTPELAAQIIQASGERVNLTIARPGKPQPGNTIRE

[3] = biological target: T3, DFNB31_1, Q9P202
T3 sequence (Q9P202 135-233, limits assumed, looked up): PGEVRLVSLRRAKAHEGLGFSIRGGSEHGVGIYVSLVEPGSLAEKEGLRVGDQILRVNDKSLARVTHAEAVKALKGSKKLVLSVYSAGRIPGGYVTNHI

[4] = biological target: Inadl_5, Q8NI35
Sequence of Inadl_5, Q8NI35 (Q8NI35 673-780): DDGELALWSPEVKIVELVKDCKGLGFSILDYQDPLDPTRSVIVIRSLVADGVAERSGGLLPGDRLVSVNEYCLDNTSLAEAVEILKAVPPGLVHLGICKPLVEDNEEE

[5] = biological target: NOS1, P29475
Sequence of NOS1, P29475 (P29475 9-101): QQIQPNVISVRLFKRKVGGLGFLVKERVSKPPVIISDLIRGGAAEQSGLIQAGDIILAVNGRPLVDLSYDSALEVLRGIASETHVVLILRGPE

[6] = biological target: Inadl_9, Q8NI35
Sequence of Inadl_9, Q8NI35 (Q8NI35 1530-1615): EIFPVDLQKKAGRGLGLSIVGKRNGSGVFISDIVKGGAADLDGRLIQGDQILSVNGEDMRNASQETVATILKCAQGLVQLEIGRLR

[7] = biological target: DLG1_1, Q12959
[8] = biological target: MAGI2_6, Q86UL8
Sequence of MAGI2_6, Q86UL8 (Q86UL8 1141-1229): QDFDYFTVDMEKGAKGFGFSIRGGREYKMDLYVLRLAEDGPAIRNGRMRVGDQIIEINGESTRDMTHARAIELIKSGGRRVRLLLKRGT

[9] = biological target: T4, MPP6, Q9NZW5
T4 sequence (Q9NZW5 125-219, limits assumed, looked up): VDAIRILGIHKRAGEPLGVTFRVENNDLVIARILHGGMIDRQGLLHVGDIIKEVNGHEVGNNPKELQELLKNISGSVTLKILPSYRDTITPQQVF

[10] = biological target: T5, PTPN13_1, Q12923
T5 sequence (Q12923 1088-1188, limits assumed, looked up): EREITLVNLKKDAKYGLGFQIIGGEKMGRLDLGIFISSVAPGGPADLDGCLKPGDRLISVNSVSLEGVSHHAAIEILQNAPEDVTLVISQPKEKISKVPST

[11] = biological target: DLG2_2, Q15700
Sequence of DLG2_2, Q15700 (Q15700 189-283): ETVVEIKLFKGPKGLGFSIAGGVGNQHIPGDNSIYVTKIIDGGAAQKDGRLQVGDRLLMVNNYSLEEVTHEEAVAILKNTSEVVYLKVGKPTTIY

[12] = biological target: PICK1, Q9NRD5
Sequence of PICK1, Q9NRD5 (Q9NRD5 17-115): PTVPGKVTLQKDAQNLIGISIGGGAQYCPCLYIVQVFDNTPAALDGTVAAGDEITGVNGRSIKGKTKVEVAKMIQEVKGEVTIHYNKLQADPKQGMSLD

[13] = biological target: GORASP1, Q9BQQ3
Sequence of GORASP1, Q9BQQ3 (Q9BQQ3 1-208): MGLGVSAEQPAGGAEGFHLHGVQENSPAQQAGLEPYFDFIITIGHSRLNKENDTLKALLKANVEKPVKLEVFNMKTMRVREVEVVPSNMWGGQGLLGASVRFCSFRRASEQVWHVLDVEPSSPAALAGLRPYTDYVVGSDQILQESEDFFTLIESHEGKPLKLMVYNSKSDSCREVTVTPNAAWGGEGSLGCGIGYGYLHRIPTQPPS

[14] = biological target: LDB3, O75112
Sequence of LDB3, O75112 (O75112 1-94): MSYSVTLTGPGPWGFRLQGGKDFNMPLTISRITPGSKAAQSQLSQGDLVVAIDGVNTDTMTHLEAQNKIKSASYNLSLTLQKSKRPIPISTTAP

[15] = biological target: T6, MPP2, Q14168
T6 sequence (Q14168 180-250, limits assumed, looked up): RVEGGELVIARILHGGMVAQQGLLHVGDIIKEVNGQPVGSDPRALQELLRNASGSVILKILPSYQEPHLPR

[16] = biological target: MAGI1_2, Q96QZ7
Sequence of MAGI1_2, Q96QZ7 (Q96QZ7 456-580): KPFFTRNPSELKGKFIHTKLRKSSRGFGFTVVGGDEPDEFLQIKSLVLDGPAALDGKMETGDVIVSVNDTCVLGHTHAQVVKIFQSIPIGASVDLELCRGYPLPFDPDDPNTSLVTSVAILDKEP

[17] = biological target: T7, DLG3_1, Q92796
T7 sequence (Q92796 125-227, limits assumed, looked up): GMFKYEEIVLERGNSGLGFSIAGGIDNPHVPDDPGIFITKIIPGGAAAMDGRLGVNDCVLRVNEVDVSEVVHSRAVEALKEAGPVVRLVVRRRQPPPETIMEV

[18] = biological target: T8, DFNB31_3, Q9P202
T8 sequence (Q9P202 811-907, limits assumed, looked up): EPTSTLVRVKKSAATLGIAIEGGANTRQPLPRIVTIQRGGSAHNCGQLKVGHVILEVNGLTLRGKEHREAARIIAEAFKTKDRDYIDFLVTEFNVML

[19] = biological target: PTPN3, P26045
Sequence of PTPN3, P26045 (P26045 505-587): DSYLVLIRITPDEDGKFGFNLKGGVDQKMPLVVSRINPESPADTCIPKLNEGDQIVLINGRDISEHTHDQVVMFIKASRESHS

[20] = biological target: TJP1_3, Q07157
Sequence of TJP1_3, Q07157 (Q07157 416-512): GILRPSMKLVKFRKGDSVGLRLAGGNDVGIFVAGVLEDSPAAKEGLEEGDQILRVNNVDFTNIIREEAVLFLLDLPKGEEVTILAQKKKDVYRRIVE

[21] = biological target: MAST1, Q9Y2H9
Sequence of MAST1, Q9Y2H9 (Q9Y2H9 962-1065): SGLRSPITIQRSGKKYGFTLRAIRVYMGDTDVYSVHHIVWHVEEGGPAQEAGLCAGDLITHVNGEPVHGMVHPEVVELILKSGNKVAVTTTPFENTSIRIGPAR

[22] = biological target: CASK, O14936
Sequence of CASK, O14936 (O14936 487-570): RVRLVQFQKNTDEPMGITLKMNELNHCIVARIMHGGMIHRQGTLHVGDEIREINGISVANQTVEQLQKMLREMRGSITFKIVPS

[23] = biological target: T9, SNTA1, Q13424
T9 sequence (Q13424 82-180, limits assumed, looked up): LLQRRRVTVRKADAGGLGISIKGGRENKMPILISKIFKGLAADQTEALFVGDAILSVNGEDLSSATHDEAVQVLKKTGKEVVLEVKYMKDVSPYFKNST

[24] = biological target: GOPC, Q9HD26
[25] = biological target: FRMPD2_3, Q68DX3
Sequence of FRMPD2_3, Q68DX3 (Q68DX3 1073-1166): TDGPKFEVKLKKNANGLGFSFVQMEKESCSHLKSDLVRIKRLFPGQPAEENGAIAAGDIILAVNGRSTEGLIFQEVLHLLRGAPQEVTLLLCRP

[26] = biological target: T10, APBA2_1, Q99767
T10 sequence (Q99767 563-664, limits assumed, looked up): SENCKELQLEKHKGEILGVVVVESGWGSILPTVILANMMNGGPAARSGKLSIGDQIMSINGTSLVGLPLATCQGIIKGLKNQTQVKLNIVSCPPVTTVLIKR

[27] = biological target: HTRA2, O43464
Sequence of HTRA2, O43464 (O43464 355-458): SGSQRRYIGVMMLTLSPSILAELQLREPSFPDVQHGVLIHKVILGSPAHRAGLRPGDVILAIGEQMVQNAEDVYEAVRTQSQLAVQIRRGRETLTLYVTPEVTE

[28] = biological target: MAGI2_2, Q86UL8
Sequence of MAGI2_2, Q86UL8 (Q86UL8 410-522): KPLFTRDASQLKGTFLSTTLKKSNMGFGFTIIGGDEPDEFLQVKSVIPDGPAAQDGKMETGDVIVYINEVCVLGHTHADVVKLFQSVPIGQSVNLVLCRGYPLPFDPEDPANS

[29] = biological target: Inadl_8, Q8NI35
Sequence of Inadl_8, Q8NI35 (Q8NI35 1425-1530): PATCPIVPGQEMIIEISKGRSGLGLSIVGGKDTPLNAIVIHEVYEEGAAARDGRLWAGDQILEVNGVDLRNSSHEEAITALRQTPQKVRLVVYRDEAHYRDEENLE

[30] = plain residues with an end cap or a label only (N-terminal biotin on a linker: ahx)
[31] = plain residues with an end cap or a label only (N-terminal biotin on a linker: ttds)

For PKMKLNETSF [SHKBP1, Q8TBC3], the pKd [1, 30] was 3.49, the pKd [2, 30] was “below the threshold” and the pKd [3, 30] was 3.66. The pKd [4, 30] was “below the threshold”, the pKd [5, 30] was “below the threshold” and the pKd [6, 30] was “below the threshold”. The pKd [7, 30] was “below the threshold”, the pKd [8, 30] was 3.54 and the pKd [9, 30] was “below the threshold”. The pKd [10, 30] was “below the threshold”, the pKd [11, 30] was “below the threshold” and the pKd [12, 30] was “below the threshold”. The pKd [13, 30] was “below the threshold”, the pKd [14, 30] was “below the threshold” and the pKd [15, 30] was “below the threshold”. For the same binder, the pKd [16, 30] was “below the threshold”, the pKd [17, 30] was “below the threshold” and the pKd [18, 30] was “below the threshold”. The pKd [19, 30] was 4.68, the pKd [20, 30] was “below the threshold” and the pKd [21, 30] was 4.32. The pKd [22, 30] was “below the threshold”, the pKd [23, 30] was “below the threshold” and the pKd [24, 30] was “below the threshold”. For the same binder, the pKd [25, 30] was “below the threshold”, the pKd [26, 30] was “below the threshold” and the pKd [27, 30] was “below the threshold”. The pKd [28, 30] was “below the threshold” and the pKd [29, 30] was “below the threshold”.

For KLVIKTETTV [RASSF6, Q6ZTQ3], the pKd [1, 31] was 4.23, the pKd [2, 31] was 4.48 and the pKd [3, 31] was “below the threshold”. The pKd [4, 31] was “below the threshold”, the pKd [5, 31] was 3.58 and the pKd [6, 31] was 3.54. The pKd [7, 31] was 4.88, the pKd [8, 31] was “below the threshold” and the pKd [9, 31] was “below the threshold”. For the same binder, the pKd [10, 31] was “below the threshold”, the pKd [11, 31] was 5.24 and the pKd [12, 31] was “below the threshold”. For the same binder, the pKd [13, 31] was “below the threshold”, the pKd [14, 31] was “below the threshold” and the pKd [15, 31] was “below the threshold”. For the same binder, the pKd [16, 31] was 4.82, the pKd [17, 31] was 4.52 and the pKd [18, 31] was “below the threshold”. For the same binder, the pKd [19, 31] was 4.44, the pKd [20, 31] was “below the threshold” and the pKd [21, 31] was 4.68. The pKd [22, 31] was “below the threshold”, the pKd [23, 31] was 4.36 and the pKd [24, 31] was 3.53. The pKd [25, 31] was “below the threshold”, the pKd [26, 31] was “below the threshold” and the pKd [27, 31] was “below the threshold”. The pKd [28, 31] was 5.11 and the pKd [29, 31] was “below the threshold”.

In the case of YNSFLSVTTV [PDZRN3, Q9UPQ7], the pKd [1, 30] is reported as 3.47, the pKd [2, 30] is reported as 4.94 and the pKd [3, 30] is reported as “below the threshold”. For the same binder, the pKd [4, 30] was “below the threshold”, the pKd [5, 30] was “below the threshold” and the pKd [6, 30] was “below the threshold”. For the same binder, the pKd [7, 30] was 3.81, the pKd [8, 30] was 3.6 and the pKd [9, 30] was “below the threshold”. The pKd [10, 30] was “below the threshold”, the pKd [11, 30] was 3.98 and the pKd [12, 30] was “below the threshold”. The pKd [13, 30] was 3.8, the pKd [14, 30] was “below the threshold” and the pKd [15, 30] was “below the threshold”. For the same binder, the pKd [16, 30] was 3.99, the pKd [17, 30] was “below the threshold” and the pKd [18, 30] was 3.51. For the same binder, the pKd [19, 30] was 3.48, the pKd [20, 30] was “below the threshold” and the pKd [21, 30] was 3.98. The pKd [22, 30] was “below the threshold”, the pKd [23, 30] was 3.76 and the pKd [24, 30] was 4.1. For the same binder, the pKd [25, 30] was “below the threshold”, the pKd [26, 30] was “below the threshold” and the pKd [27, 30] was 3.48. For the same binder, the pKd [28, 30] was 3.95 and the pKd [29, 30] was 4.3.
